Reference: patent US20230138315A1 (JIANGSU HENGRUI MEDICINE, published 2023)
Positions count from the first letter of the chain named. In names and notes the source's numbering stands. Values belong to the binder of their own block, whether it stands above or below them.

Tests used:
rat ANGPTL3(17-455)-His [1] = biological target: T1, rat ANGPTL3(17-455)-His (rat, biotin-labelled in the ELISA and HTRF assays (sites not given)); assay: SPR (Biacore T200); antibody captured on Protein A chip, antigen in flow; 1:1 Langmuir fit
T1 construct: also called full-length rat ANGPTL3
T1 chain: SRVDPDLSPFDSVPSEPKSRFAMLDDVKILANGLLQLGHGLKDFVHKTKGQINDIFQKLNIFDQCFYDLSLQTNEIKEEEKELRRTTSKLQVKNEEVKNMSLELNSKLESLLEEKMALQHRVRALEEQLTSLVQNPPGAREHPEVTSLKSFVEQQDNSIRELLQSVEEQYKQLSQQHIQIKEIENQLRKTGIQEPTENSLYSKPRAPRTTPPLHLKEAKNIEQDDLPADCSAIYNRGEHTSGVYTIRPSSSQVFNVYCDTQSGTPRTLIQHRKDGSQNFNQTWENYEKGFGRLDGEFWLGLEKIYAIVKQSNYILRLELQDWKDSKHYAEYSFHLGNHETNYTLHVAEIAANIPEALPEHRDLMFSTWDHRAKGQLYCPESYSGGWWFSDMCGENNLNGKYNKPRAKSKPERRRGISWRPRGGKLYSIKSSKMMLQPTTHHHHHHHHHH
Text: Biacore was used to determine the affinity of the test anti-ANGPTL3 antibodies for human, monkey, rat and mouse ANGPTL3, and the method is as follows:
Reaction signals were detected in real time using a Biacore T200 instrument to obtain association and dissociation curves. After each cycle of dissociation was completed, the biochip was washed and regenerated using a glycine-hydrochloric acid regeneration solution (Cat. # BR-1003-54, GE, pH 1.5). The running buffer for the experiment was 1×HBS-EP buffer (Cat. # BR-1001-88, GE). The data obtained from the experiment were fitted with the (1:1) Langmuir model using GE Biacore T200 evaluation software (version 3.0) to obtain affinity values.

[2] = biological target: T2, cynomolgus monkey ANGPTL3(17-460)-His (cynomolgus monkey, UniProt Q9Y5C1 17-460 (human entry), biotin-labelled in the ELISA and HTRF assays (sites not given)); assay: HTRF; biotin-labelled antigen with Streptavidin-Tb cryptate
T2 construct: also called full-length cynomolgus monkey ANGPTL3; Cyno ANGPTL3
T2 chain: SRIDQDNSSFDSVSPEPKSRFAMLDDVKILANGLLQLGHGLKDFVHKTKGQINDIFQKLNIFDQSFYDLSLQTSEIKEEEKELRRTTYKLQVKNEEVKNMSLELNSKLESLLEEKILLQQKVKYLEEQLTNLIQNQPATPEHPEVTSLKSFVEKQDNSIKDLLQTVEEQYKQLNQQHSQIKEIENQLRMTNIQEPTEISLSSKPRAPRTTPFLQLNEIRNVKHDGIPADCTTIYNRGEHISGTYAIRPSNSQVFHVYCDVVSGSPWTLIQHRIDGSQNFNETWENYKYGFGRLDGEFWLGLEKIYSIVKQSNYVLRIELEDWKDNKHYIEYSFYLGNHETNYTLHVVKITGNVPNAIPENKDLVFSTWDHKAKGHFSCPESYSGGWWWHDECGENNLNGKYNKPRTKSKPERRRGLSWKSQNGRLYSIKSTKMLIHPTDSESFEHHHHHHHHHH

[3] = biological target: T3, mouse ANGPTL3(17-455)-His (mouse, UniProt Q9R182 17-455, biotin-labelled in the ELISA and HTRF assays (sites not given)); assay: as above
T3 construct: also called full-length mouse ANGPTL3
T3 sequence: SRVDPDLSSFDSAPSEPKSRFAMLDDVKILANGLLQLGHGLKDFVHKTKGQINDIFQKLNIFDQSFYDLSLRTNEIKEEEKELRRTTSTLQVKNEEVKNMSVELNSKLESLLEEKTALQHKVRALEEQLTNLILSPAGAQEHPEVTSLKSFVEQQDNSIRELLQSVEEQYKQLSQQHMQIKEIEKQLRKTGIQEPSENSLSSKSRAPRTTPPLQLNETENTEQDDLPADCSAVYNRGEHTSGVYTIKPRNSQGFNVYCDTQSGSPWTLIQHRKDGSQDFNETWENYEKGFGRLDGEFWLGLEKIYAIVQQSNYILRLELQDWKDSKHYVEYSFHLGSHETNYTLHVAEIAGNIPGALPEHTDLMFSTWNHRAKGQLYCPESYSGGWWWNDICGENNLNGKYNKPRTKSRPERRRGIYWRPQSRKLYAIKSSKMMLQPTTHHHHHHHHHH

[4] = biological target: T4, human-ANGPTL3(17-460)-His (human, UniProt Q9Y5C1 17-460, biotin-labelled (labelling kit, sites not stated)); assay: as above
T4 construct: also called full-length human ANGPTL3
T4 sequence: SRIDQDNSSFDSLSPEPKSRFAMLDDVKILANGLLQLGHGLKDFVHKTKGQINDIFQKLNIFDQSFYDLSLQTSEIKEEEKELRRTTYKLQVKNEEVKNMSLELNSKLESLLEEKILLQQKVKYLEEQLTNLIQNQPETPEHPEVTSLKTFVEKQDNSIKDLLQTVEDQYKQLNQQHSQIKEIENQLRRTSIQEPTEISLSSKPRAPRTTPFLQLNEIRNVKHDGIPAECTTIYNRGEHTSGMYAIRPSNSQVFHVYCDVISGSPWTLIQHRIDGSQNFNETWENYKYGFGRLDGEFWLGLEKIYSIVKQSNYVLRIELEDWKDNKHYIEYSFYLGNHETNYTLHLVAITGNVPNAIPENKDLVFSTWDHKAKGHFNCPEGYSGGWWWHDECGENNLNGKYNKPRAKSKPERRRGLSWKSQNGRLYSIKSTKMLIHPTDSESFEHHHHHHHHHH

[5] = biological target: T2, cynomolgus monkey ANGPTL3(17-460)-His; assay: cell-based or functional assay
[6] = biological target: T3, mouse ANGPTL3(17-455)-His; assay: cell-based or functional assay
[7] = biological target: T5, human ANGPTL3(17-170)-Flag-His (human); assay: cell-based or functional assay
T5 chain: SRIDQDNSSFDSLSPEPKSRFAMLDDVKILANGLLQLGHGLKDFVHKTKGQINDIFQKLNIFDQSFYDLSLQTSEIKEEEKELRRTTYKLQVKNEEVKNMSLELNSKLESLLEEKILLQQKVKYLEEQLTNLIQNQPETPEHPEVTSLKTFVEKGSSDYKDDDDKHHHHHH

rat ANGPTL3(17-455)-His [8] = biological target: T1, rat ANGPTL3(17-455)-His; assay: cell-based or functional assay

B1: P8G (antibody, human IgG4 S228P, kappa, V domains shown)
VH: QVQLVQSGAEVKKPGASVKVSCKASGYTFTSYDINWVRQAPGQGLEWVGLINPRDDSTSYAQKFQGRVTMTRDTSTSTMYMELSSLRSEDTAVYFCARDLGSIREVLYYGMDVWGQGTTVTVSS
VL: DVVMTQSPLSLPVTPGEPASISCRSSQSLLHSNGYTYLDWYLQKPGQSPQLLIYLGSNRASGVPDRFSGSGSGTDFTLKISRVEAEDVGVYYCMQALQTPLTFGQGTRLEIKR
notes: also called anti-ANGPTL3 antibody P8G; P8 (variable regions)
- Kd (rat ANGPTL3(17-455)-His [1]): 0.25 nM
- koff (rat ANGPTL3(17-455)-His [1]): 0.000335 s⁻¹
- kon (rat ANGPTL3(17-455)-His [1]): 1.34e+06 M⁻¹ s⁻¹

- Kd (rat ANGPTL3(17-455)-His [1]): 0.257 nM
- koff (rat ANGPTL3(17-455)-His [1]): 0.000311 s⁻¹
- kon (rat ANGPTL3(17-455)-His [1]): 1.21e+06 M⁻¹ s⁻¹
- EC50 [2]: 0.36 nM
- EC50 [3]: 0.321 nM
- EC50 [4]: 0.277 nM
- IC50 of blocking the inhibition of bovine LPL enzyme activity by ANGPTL3 [5]: 53.6 nM
- IC50 of blocking the inhibition of bovine LPL enzyme activity by ANGPTL3 [6]: 41.5 nM
- IC50 of blocking the inhibition of bovine LPL enzyme activity by ANGPTL3 [7]: 75.3 nM
- IC50 of blocking the inhibition of bovine LPL enzyme activity by ANGPTL3 (rat ANGPTL3(17-455)-His [8]): 132 nM
B2: P8BG (antibody, human IgG4 S228P, kappa, V domains shown)
VH: B1 VH with D55E
VL: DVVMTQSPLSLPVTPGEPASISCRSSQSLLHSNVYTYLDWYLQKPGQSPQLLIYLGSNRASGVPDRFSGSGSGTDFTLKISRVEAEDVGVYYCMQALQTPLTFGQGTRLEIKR
notes: also called anti-ANGPTL3 antibody P8BG; P8B (variable regions)

B3: P3G (antibody, human IgG4 S228P, kappa, V domains shown)
VH: QVQLVQSGAEVKKPGASVKVSCKSSGYTFTDYYLHWLRQAPGQGPEWMGWISPNSGGTSYAQKFQGRVTMTRDTSISTAYMELSSLRSDDTAVYYCARDIATLGNFFTYGMDVWGQGTTVTVSS
VL: DIQLTQSPSSLSASVGDRVTITCRASQGIRNDLGWYQQKPGKAPKLLIYAASSLQSGVPSRFSGSGSGTDFTLTISSLQPEDFATYYCQQSYSSWTFGQGTKVEIKR
notes: also called anti-ANGPTL3 antibody P3G; P3 (variable regions)
- Kd (rat ANGPTL3(17-455)-His [1]): 0.639 nM
- koff (rat ANGPTL3(17-455)-His [1]): 0.00082 s⁻¹
- kon (rat ANGPTL3(17-455)-His [1]): 1.28e+06 M⁻¹ s⁻¹
- IC50 of blocking the inhibition of bovine LPL enzyme activity by ANGPTL3 [5]: 42.4 nM
- IC50 of blocking the inhibition of bovine LPL enzyme activity by ANGPTL3 [6]: 168 nM
- IC50 of blocking the inhibition of bovine LPL enzyme activity by ANGPTL3 [7]: 68.9 nM
- IC50 of blocking the inhibition of bovine LPL enzyme activity by ANGPTL3 (rat ANGPTL3(17-455)-His [8]): 66.5 nM
